For the experiment, the target named is murine tenascin-C (murine) (UniProt Q80YX1). Kind of experiment: negative staining transmission electron microscopy; murine TNC with CXCL12 labeled with colloidal gold; gold particles counted along the length of the TNC monomer, 500 TNC molecules.

For orientation: stoichiometry N means a count of units in the complex or per binding partner. murine tenascin-C, Q80YX1 23-2110 registered a stoichiometry N of 6.
